In patent US20230340128A1 (Xencor, published 2023):
Numbering of substitutions follows the chain as printed. Each block holds one binder with its values, some of them ahead of it.

Assays:
human mesothelin (MSLN) [1] = target: T1, human mesothelin (MSLN) (human, UniProt Q13421 296-580, limits assumed); test: BLI (Octet), bsAb in 1+1 Fab-scFv-Fc format
T1 construct: Antigen of the Octet KD values

[2] = target: T2, MSLN on OVCAR8 cells (~90K MSLN antigens/cell) (UniProt Q13421 296-598); test: binding to OVCAR8 cells, MFI APC against mAb concentration
human mesothelin (MSLN) [3] = target: T1, human mesothelin (MSLN); test: BLI (Octet), multiple concentrations, bsAb in 1+1 Fab-scFv-Fc format; lower table, column 'human MSLN (M)'
human mesothelin (MSLN) [4] = target: T1, human mesothelin (MSLN); test: KD quoted in the FIG. 25 legend; Octet (BLI) per FIGS. 20-21
[5] = target: T2, MSLN on OVCAR8 cells (~90K MSLN …); test: binding to OVCAR8 cells, MFI APC against mAb concentration; remark: listed apart in the source
[6] = target: T2, MSLN on OVCAR8 cells (~90K MSLN …); test: as above; remark: listed apart in the source
[7] = target: T3, MSLN on OVCAR8 cells (~90K MSLN antigens/cell) (UniProt Q13421 296-598); test: flow cytometry on OVCAR8 cells, 1 h at 4 C, anti-human-Fc A647 secondary
T3 construct: whole, on cells; Endogenous expression on a cancer cell line
Procedure: (§1) In this experiment, 50,000 OVCAR8 cells (˜90K MSLN antigens/cell) were seeded per well in a plate. Anti-human-Fc secondary (A647) was added for 30 min at 4° C., and binding was assessed via FACs. FIG. 39C depicts that the CD28×MSLN bsAbs in neither 1+1-Fab-scFv format nor the 2+1 mAb-scFv format antibodies show any significant off target binding. In this experiment, 50,000 SKOV3 cells (˜9K MSLN antigens/cell) were seeded per well in a plate. Anti-human-Fc secondary (A647) was added for 30 min at 4° C., and binding was assessed via FACs.
(§2) In order to assess the binding of MSLN×CD28 bsAbs in different formats, an experiment was conducted in which 50,000 OVCAR8 cells (˜90K MSLN antigens/cell) were seeded per well in a plate. Anti-human-Fc secondary (A647) was added for 30 min at 4° C., and binding was assessed via FACs.

[8] = target: T3, MSLN on OVCAR8 cells (~90K MSLN …); test: as above; remark: listed apart in the source
Procedure: as §1, §2

human CD28 = target: T4, human CD28 (human, UniProt P10747 19-152, limits assumed); test: label in the legend box: nominal affinity of the CD28 binding domain (paragraph 422 calls such label values KD); method not stated on the sheet
T4 construct: also called Cluster of Differentiation 28; Tp44

human mesothelin (MSLN) [9] = target: T1, human mesothelin (MSLN); test: label in the legend box: nominal affinity of the MSLN binding domain (paragraph 422 calls such label values KD); method not stated on the sheet

Kd (human mesothelin (MSLN) [1]): 0.355 nM
Response (human mesothelin (MSLN) [1]): 1.08
koff (human mesothelin (MSLN) [1]): 0.000215 s⁻¹
kon (human mesothelin (MSLN) [1]): 606000 M⁻¹ s⁻¹
EC50 (read off the curve) [2]: ~0.2 µg/mL
Kd (human mesothelin (MSLN) [3]): 0.45 nM
B1: XENP32561 (bispecific antibody)
chain 1: QVQLVQSGAEVKKPGASVKVSCKASGYTFTSYWMHWVRQAPGQGLEWMGMIHPNSDNTIYYEKFQGRVTMTVDKSISTAYMELSRLRSDDTAVYYCAIIITPVVPKFDYWGQGTLVTVSSASTKGPSVFPLAPSSKSTSGGTAALGCLVKDYFPEPVTVSWNSGALTSGVHTFPAVLQSSGLYSLSSVVTVPSSSLGTQTYICNVNHKPSDTKVDKKVEPKSCDKTHTCPPCPAPPVAGPSVFLFPPKPKDTLMISRTPEVTCVVVDVKHEDPEVKFNWYVDGVEVHNAKTKPREEEYNSTYRVVSVLTVLHQDWLNGKEYKCKVSNKALPAPIEKTISKAKGQPREPQVYTLPPSREEMTKNQVSLTCDVSGFYPSDIAVEWESDGQPENNYKTTPPVLDSDGSFFLYSKLTVDKSRWEQGDVFSCSVMHEALHNHYTQKSLSLSPGK
chain 2: not shown
chain 3: DIVMTQSPDSLAVSLGERATINCKASHSVGTSVAWYQQKPGQSPKLLIYWASTRHTGVPDRFTGSGSGTDFTLTISSLQAEDVAVYFCQQYSSYPLTFGAGTKLEIKRTVAAPSVFIFPPSDEQLKSGTASVVCLLNNFYPREAKVQWKVDNALQSGNSQESVTEQDSKDSTYSLSSTLTLSKADYEKHKVYACEVTHQGLSSPVTKSFNRGEC

Kd (human mesothelin (MSLN) [4]): 0.45 nM
EC50 (read off the curve) [2]: ~0.05 µg/mL
B2: XENP32745 (bispecific antibody)
chain 1: B1 chain 1
chain 2: QVQLVQSGAEVKKPGASVKVSCKASGYTFTSYWMHWVRQAPGQGLEWMGMIHPNSDNTIYYEKFQGRVTMTVDKSISTAYMELSRLRSDDTAVYYCAIIITPVVPKFDYWGQGTLVTVSSASTKGPSVFPLAPSSKSTSGGTAALGCLVKDYFPEPVTVSWNSGALTSGVHTFPAVLQSSGLYSLSSVVTVPSSSLGTQTYICNVNHKPSNTKVDKKVEPKSCGGGGSGGGGSQAVVTQEPSLTVSPGGTVTLTCGSSTGAVTTSNYANWVQQKPGKSPRGLIGGTNKRAPGVPARFSGSLLGGKAALTISGAQPEDEADYYCALWYSNHWVFGGGTKLTVLGKPGSGKPGSGKPGSGKPGSEVQLVESGGGLVQPGGSLRLSCAASGFTFSTYAMNWVRQAPGKGLEWVGRIRSKANNYATYYADSVKGRFTISRDDSKNTLYLQMNSLRAEDTAVYYCVRHGNFGDSYVSWFAYWGQGTLVTVSSGGGGSGGGGSKTHTCPPCPAPPVAGPSVFLFPPKPKDTLMISRTPEVTCVVVDVKHEDPEVKFNWYVDGVEVHNAKTKPREEQYNSTYRVVSVLTVLHQDWLNGKEYKCKVSNKALPAPIEKTISKAKGQPREPQVYTLPPSREQMTKNQVKLTCLVKGFYPSDIAVEWESNGQPENNYKTTPPVLDSDGSFFLYSKLTVDKSRWQQGNVFSCSVMHEALHNHYTQKSLSLSPGK
chain 3: B1 chain 3

Kd (human mesothelin (MSLN) [4]): 0.74 nM
EC50 (read off the curve) [5]: ~0.04 µg/mL
B3: XENP32748 (bispecific antibody)
chain 1: B1 chain 1
chain 2: B2 chain 2
chain 3: B1 chain 3 with S28D, G30L

Kd (human mesothelin (MSLN) [1]): 0.628 nM
Response (human mesothelin (MSLN) [1]): 1.01
koff (human mesothelin (MSLN) [1]): 0.000409 s⁻¹
kon (human mesothelin (MSLN) [1]): 651000 M⁻¹ s⁻¹
EC50 (read off the curve) [5]: ~0.2 µg/mL
Kd (human mesothelin (MSLN) [3]): 0.74 nM
B4: XENP32562 (bispecific antibody)
chain 1: B1 chain 1
chain 2: not shown
chain 3: B1 chain 3 with S28D, G30L

Kd (human mesothelin (MSLN) [4]): 3.9 nM
EC50 (read off the curve) [6]: ~0.06 µg/mL
B5: XENP32852 (bispecific antibody)
chain 1: B1 chain 1
chain 2: B2 chain 2
chain 3: B1 chain 3 with S28D, S92Y

EC50 (read off the curve) [7]: ~4 µg/mL
EC50 (read off the curve) [8]: ~4 µg/mL
Kd (human CD28): 180 nM
Kd (human mesothelin (MSLN) [9]): 9 nM
B6: XENP39566 (bispecific antibody)
heavy: B1 chain 1 with M50W, M430L, N436S
scFv-Fc: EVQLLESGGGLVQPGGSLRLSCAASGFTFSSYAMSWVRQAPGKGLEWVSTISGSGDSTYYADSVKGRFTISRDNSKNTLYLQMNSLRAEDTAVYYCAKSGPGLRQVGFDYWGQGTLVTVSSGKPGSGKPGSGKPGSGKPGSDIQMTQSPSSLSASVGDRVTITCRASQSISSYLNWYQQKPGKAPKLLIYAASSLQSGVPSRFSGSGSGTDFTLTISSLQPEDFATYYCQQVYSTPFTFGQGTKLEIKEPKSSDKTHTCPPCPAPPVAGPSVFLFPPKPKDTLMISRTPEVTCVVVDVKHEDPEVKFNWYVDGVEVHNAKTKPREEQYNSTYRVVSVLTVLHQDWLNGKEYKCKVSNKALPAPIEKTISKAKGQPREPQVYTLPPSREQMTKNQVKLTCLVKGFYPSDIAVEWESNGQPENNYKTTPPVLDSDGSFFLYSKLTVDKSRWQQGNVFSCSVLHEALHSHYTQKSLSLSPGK
light: B1 chain 3 with S28D
notes: also called XENP39566 MSLN (9 nM) x CD28 (180 nM) 1+1 Fab-scFv-Fc

Kd (human mesothelin (MSLN) [4]): 3.9 nM
EC50 (read off the curve) [6]: ~0.06 µg/mL
B7: XENP32853 (bispecific antibody)
chain 1: B1 chain 1
chain 2: QVQLVQSGAEVKKPGASVKVSCKASGYTFTSYWMHWVRQAPGQGLEWMGMIHPNSDNTIYYEKFQGRVTMTVDKSISTAYMELSRLRSDDTAVYYCAIIITPVVPKFDYWGQGTLVTVSSASTKGPSVFPLAPSSKSTSGGTAALGCLVKDYFPEPVTVSWNSGALTSGVHTFPAVLQSSGLYSLSSVVTVPSSSLGTQTYICNVNHKPSNTKVDKKVEPKSCGGGGSGGGGSQAVVTQEPSLTVSPGGTVTLTCGSSTGAVTTSNYANWVQQKPGKSPRGLIGGTNKRAPGVPARFSGSLLGGKAALTISGAQPEDEADYYCALWYSNHWVFGGGTKLTVLGKPGSGKPGSGKPGSGKPGSEVQLVESGGGLVQPGGSLRLSCAASGFTFSTYAMNWVRQAPGKGLEWVGRIRSKYNNYATYYADSVKGRFTISRDDSKNTLYLQMNSLRAEDTAVYYCVRHGNFGDEYVSWFAYWGQGTLVTVSSEPKSSDKTHTCPPCPAPPVAGPSVFLFPPKPKDTLMISRTPEVTCVVVDVKHEDPEVKFNWYVDGVEVHNAKTKPREEQYNSTYRVVSVLTVLHQDWLNGKEYKCKVSNKALPAPIEKTISKAKGQPREPQVYTLPPSREQMTKNQVKLTCLVKGFYPSDIAVEWESNGQPENNYKTTPPVLDSDGSFFLYSKLTVDKSRWQQGNVFSCSVMHEALHNHYTQKSLSLSPGK
chain 3: B1 chain 3 with S28D, S92Y

EC50 (read off the curve) [7]: ~0.01 µg/mL
EC50 (read off the curve) [8]: ~0.01 µg/mL
Kd (human CD28): 180 nM
Kd (human mesothelin (MSLN) [9]): 0.3 nM
B8: XENP39554 (bispecific antibody)
heavy: B1 chain 1 with M430L, N436S
scFv-Fc: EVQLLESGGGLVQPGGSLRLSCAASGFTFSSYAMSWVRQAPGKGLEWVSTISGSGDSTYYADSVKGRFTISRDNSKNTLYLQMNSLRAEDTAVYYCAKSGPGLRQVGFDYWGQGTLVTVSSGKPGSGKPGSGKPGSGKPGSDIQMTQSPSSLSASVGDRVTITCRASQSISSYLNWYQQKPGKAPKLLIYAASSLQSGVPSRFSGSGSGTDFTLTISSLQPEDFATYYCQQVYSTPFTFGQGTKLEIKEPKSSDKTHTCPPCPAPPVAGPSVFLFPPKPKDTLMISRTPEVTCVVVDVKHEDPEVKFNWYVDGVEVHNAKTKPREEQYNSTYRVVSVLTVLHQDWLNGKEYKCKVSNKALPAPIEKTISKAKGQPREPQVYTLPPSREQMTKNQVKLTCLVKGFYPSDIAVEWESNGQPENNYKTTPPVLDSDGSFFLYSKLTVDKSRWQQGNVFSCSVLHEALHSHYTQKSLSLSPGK
light: B1 chain 3 with S28D
notes: also called XENP39554 MSLN (0.3 nM) x CD28 (180 nM) 1+1 Fab-scFv-Fc
